# Results published in paper PMC4876929 (Nature, 2015).
# Read-outs that look alike come from different tables or passages of the source.
# B1: Fluc channel from Bordetella pertussis (Bpe), R29K/E94C, Hg-labelled (natural protein)
# chain: MLTYAPLNFIAIGIGATLGAWLRWVLGLKLNGAGWPWGTLTANLVGGYLIGVMVALIASHPEWPAWIRLAAVTGFLGGLTTFSTFSAETVDMLCRGVYATAAAYAGASLAGSLAMTGLGLATVRLLLR
# modifications: Hg at the unique cysteine (E94C), labelled with Hg(II) acetate
# B2: Fluc channel from Bordetella pertussis (Bpe), R29K/E94S (natural protein, UniProt Q7VYU0 1-128, looked up)
# chain: MLTYAPLNFIAIGIGATLGAWLRWVLGLKLNGAGWPWGTLTANLVGGYLIGVMVALIASHPEWPAWIRLAAVTGFLGGLTTFSTFSAETVDMLSRGVYATAAAYAGASLAGSLAMTGLGLATVRLLLR
# How the values were obtained:
# crystal structure [1] = target: the molecule itself; assay: crystal structure
# crystal structure [2] = target: the molecule itself; assay: crystal structure; remark: listed apart in the source
Protein,stoichiometry N (crystal structure [1]),stoichiometry N (crystal structure [2])
B1,2,–
B2,–,2
